According to patent US20260226154A1 (CEPHALON, published 2026):

What was measured:
[1] = molecular target: T1, PACAP38 (human, not fully specified); test: cell-based or functional assay
T1 peptide: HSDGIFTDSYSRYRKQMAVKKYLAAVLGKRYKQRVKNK

[2] = molecular target: T1, PACAP38; test: SPR (Biacore S200) off-rate ranking, antibody captured from supernatant, single injection of 33.3 nM PACAP38
Procedure: In brief, antibody and peptide interaction was determined on a Biacore S200 (GE Healthcare) by method previously described (Andreu and Gomes 2002). An anti-Human IgG Fc capture antibody was immobilized on a CM5 biosensor chip via standard amine coupling. Anti-PACAP antibodies were injected and captured to 200 to 400 response units (RU),). PACAP38, PACAP27 and VIP were diluted in HBS-EP+ buffer containing 0.1% w/v BSA (Bovostar, catalog number BSAS1.0) and 0.15 M NaCl (Sigma-Aldrich catalog number S7653), pH 7.4. […] For subsequent cycles, the chip was regenerated using 0.85% phosphoric acid. Data was analysed with the Biacore S200 Evaluation Software (ver 1.0). Association rate (kₐ) and dissociation rate (kd) constants were determined using a simple one-to-one Langmuir binding model and used to calculate the equilibrium dissociation constant (KD).

[3] = molecular target: T1, PACAP38; test: cell-based or functional assay
[4] = molecular target: T2, VIP (human); test: SPR (Biacore), 37 C, captured antibody; target VIP
T2 construct: also called vasoactive intestinal peptide
T2 peptide: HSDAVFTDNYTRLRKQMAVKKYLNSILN
Procedure: (§1) In brief, antibody and peptide interaction was determined on a Biacore S200 (GE Healthcare) by method previously described (Andreu and Gomes 2002). An anti-Human IgG Fc capture antibody was immobilized on a CM5 biosensor chip via standard amine coupling. Anti-PACAP antibodies were injected and captured to 200 to 400 response units (RU),). PACAP38, PACAP27 and VIP were diluted in HBS-EP+ buffer containing 0.1% w/v BSA (Bovostar, catalog number BSAS1.0) and 0.15 M NaCl (Sigma-Aldrich catalog number S7653), pH 7.4. Binding kinetics of antibodies were determined by injection of two-fold serial dilutions of PACAPs (12 nm to 0 nM) and VIP (1200 nM to 0 nM) in running buffer at 37° C. with a flow rate of 40 μL/min for 2 min followed by a dissociation for 10 minutes. For subsequent cycles, the chip was regenerated using 0.85% phosphoric acid. Data was analysed with the Biacore S200 Evaluation Software (ver 1.0). Association rate (kₐ) and dissociation rate (kd) constants were determined using a simple one-to-one Langmuir binding model and used to calculate the equilibrium dissociation constant (KD).
(§2) The selectivity of antibody 890C was assessed by comparing the inhibition of PACAP38-signalling to inhibition of VIP-signalling in a cyclic AMP (cAMP) measuring cell-based functional assay.

[5] = molecular target: T3, PACAP27 (human, not fully specified); test: SPR (Biacore), 37 C, captured antibody; target PACAP27
T3 peptide: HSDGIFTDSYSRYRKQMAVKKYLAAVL
Procedure: as §1, §2

[6] = molecular target: T4, Secretin; test: SPR (Biacore) at 37 C, captured antibody, 37.5 nM peptide, relative response after 15 sec dissociation
T4 peptide: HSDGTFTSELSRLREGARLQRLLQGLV
Procedure: (§3) The anti-PACAP antibodies, e.g., 890C, were tested against related peptides in the Secretin Glucagon family (Table 19) to determine the presence and extent of any off-target binding. Nine bioactive peptides in the glucagon superfamily are: PACAP, VIP, glucagon, Glucagon-Like Peptides (GLP-1, GLP-2), Growth Hormone Releasing Factor (GRF or GHRF), Peptide Histidine Methionine (PHM), secretin, and Gastric inhibitory polypeptide (GIP). Following capture of antibodies as described in example 4, the antibody and the peptide interaction was measured by injection of 37.5 nM of each peptide diluted in buffer at 37° C. with a flow rate of […] for 2 min followed by a dissociation phase of 4-5 min. Samples were injected in a multi-cycle manner over freshly captured anti-PACAP antibody, by regenerating the capture surfaces with two injections of 0.85% phosphoric acid at a flow rate of 30 μL/min.
as §2

[7] = molecular target: T5, GLP-2; test: as above
T5 construct: also called Glucagon-Like Peptide 2
T5 peptide: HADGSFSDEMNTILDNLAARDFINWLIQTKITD
Procedure: as §3, §2

[8] = molecular target: Glucagon; test: as above
Sequence of Glucagon (peptide, as listed by the source): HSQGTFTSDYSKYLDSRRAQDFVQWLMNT
Procedure: as §3, §2

[9] = molecular target: T6, GIP; test: as above
T6 peptide: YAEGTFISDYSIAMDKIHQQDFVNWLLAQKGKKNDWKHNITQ
Procedure: as §3, §2

[10] = molecular target: T7, GLP-1; test: as above
T7 construct: also called Glucagon-Like Peptide 1
T7 peptide: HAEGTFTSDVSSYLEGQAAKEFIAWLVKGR
Procedure: as §3, §2

[11] = molecular target: T8, PHM; test: as above
T8 construct: also called Peptide Histidine Methionine
T8 peptide: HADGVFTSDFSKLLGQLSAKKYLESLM
Procedure: as §3, §2

[12] = molecular target: T9, GRF; test: as above
T9 construct: also called GHRF; Growth Hormone Releasing Factor
T9 peptide: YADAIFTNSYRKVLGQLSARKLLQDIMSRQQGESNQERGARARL
Procedure: as §3, §2

[13] = molecular target: T1, PACAP38; test: cell-based or functional assay
[14] = molecular target: T2, VIP; test: cell-based or functional assay
[15] = molecular target: T1, PACAP38; test: SPR (Biacore), 37 C, captured antibody; target PACAP38
Procedure: as §1, §2

[16] = molecular target: T1, PACAP38; test: SPR (Biacore), 37 C, antibody captured via anti-human Fc, peptide analyte
Procedure: as §1

[17] = molecular target: T1, PACAP38; test: cell-based or functional assay

B1: 890C (antibody, human IgG2, kappa, V domains shown)
VH: EVQLVQSGAEVKKPGSSVKVSCKASGGTFSDVYMHWVRQAPGQGLEWMGLIYPIFADTRYAQKFQGRVTITADESTSTAYMELSSLRSEDTAVYYCAIDQDGSFAYWGQGTLVTVSS
VL: DIVMTQSPDSLAVSLGERATINCKSSQSLLDADGKTYLNWLQQKPGQPPKRLIYWASTRESGVPDRFSGSGSGTDFTLTISSLQAEDVAVYYCWQGTWFDLTFGGGTKVEIKR
notes: Full chains as named '890C heavy chain' / '890C light chain' (IgG2DASS, kappa); also called anti-PACAP antibody 890C
[1]
  PACAP-38 IC50: 0.32 nM
[2]
  Kd: 0.0284 nM
  koff: 0.000671 s⁻¹
  kon: 2.36e+07 M⁻¹ s⁻¹
[3]
  selectivity, inhibition of PACAP38-induced cAMP production (CHO-K1, PAC1 receptor) versus VIP-induced cAMP production (CHO-K1, VPAC1 receptor): > 1000 fold
[4]
  Kd: 390 nM
[5]
  Kd: 0.218 nM
[6]
  binding result: no binding (tested: 37.5 nM)
[7]
  binding result: no binding (tested: 37.5 nM)
[8]
  binding result: no binding (tested: 37.5 nM)
[9]
  binding result: no binding (tested: 37.5 nM)
[10]
  binding result: no binding (tested: 37.5 nM)
[11]
  binding result: no binding (tested: 37.5 nM)
[12]
  binding result: no binding (tested: 37.5 nM)
[13]
  IC50 (read off the curve), PACAP-induced cAMP production, CHO-K1 cells expressing PAC1: ~0.4 nM
  fold shift between the PACAP/PAC1 and the VIP/VPAC1 inhibition curves (selectivity for PACAP over VIP): 1400 fold
[14]
  IC50 (read off the curve), VIP-induced cAMP production, CHO-K1 cells expressing VPAC1: ~600 nM
[15]
  Kd: 0.054 nM
[16]
  Kd: 0.0284 nM
  koff: 0.000671 s⁻¹
  kon: 2.36e+07 M⁻¹ s⁻¹
[17]
  IC50 (nM), PACAP-induced cAMP accumulation, CHO-K1 cells, cAMP-Glo: 0.32 nM
